Experimental data from article PMC9594044.

Target: PtTamH (Pseudoalteromonas tunicata)
Assay: SEC; size exclusion chromatography of purified recombinant PtTamH after IMAC; retention volume corresponds to >200 kDa

- stoichiometry N: 2
Substance: PtTamH (enzyme)
